Test results: patent US20170173107A1 (University of Pennsylvania, published 2017)
Positions of bridges follow the written chain, without caps; N, C: chain ends. Non-standard residues stand in square brackets, D forms with d. *: point of attachment. ABM1 = 3-(naphthalene-2-sulfonamido)propanoic acid albumin-binding tag, amide-linked to N-terminus, O=C(CCNS(=O)(=O)c1ccc2ccccc2c1)*; ABM2 = diphenyl-cyclohexanol phosphate ester hexanoic acid tag; Trp(1-Me) = Cn1cc(C[C@H](N)C(=O)O)c2ccccc21; NMeI = CC[C@H](C)[C@H](NC)C(=O)O; Sar = CNCC(=O)O

Legend:
[1] = molecular target: T1, C3b (biotinylated, captured on a streptavidin sensor chip) (UniProt P01024 749-1663, biotinylated (site not stated)); test: SPR (Biacore 3000), single-cycle kinetics, peptide over captured biotinylated C3b, 1:1 model, 25 °C
T1 construct: range 727-1641; also called site-specifically immobilized C3b
T1 sequence (P01024 23-665 P314L limits assumed, chain 1 of 2): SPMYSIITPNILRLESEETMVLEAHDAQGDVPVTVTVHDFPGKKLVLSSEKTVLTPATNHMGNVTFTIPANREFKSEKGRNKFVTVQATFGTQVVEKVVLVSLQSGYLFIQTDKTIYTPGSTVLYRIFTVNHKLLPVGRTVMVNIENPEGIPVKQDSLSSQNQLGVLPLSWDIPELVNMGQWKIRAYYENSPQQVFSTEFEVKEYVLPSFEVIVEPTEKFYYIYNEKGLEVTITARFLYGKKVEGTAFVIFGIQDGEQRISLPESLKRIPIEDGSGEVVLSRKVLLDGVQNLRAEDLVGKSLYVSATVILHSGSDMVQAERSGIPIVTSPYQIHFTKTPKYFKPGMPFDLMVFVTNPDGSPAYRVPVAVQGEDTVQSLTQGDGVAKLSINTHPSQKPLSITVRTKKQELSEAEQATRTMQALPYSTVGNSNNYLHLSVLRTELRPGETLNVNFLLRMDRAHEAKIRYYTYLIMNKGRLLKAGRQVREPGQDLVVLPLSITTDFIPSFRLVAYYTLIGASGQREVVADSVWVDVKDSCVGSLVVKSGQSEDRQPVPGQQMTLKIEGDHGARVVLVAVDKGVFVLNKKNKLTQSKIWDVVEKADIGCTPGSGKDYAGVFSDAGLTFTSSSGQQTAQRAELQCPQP
T1 sequence (P01024 749-1663 limits assumed, chain 2 of 2): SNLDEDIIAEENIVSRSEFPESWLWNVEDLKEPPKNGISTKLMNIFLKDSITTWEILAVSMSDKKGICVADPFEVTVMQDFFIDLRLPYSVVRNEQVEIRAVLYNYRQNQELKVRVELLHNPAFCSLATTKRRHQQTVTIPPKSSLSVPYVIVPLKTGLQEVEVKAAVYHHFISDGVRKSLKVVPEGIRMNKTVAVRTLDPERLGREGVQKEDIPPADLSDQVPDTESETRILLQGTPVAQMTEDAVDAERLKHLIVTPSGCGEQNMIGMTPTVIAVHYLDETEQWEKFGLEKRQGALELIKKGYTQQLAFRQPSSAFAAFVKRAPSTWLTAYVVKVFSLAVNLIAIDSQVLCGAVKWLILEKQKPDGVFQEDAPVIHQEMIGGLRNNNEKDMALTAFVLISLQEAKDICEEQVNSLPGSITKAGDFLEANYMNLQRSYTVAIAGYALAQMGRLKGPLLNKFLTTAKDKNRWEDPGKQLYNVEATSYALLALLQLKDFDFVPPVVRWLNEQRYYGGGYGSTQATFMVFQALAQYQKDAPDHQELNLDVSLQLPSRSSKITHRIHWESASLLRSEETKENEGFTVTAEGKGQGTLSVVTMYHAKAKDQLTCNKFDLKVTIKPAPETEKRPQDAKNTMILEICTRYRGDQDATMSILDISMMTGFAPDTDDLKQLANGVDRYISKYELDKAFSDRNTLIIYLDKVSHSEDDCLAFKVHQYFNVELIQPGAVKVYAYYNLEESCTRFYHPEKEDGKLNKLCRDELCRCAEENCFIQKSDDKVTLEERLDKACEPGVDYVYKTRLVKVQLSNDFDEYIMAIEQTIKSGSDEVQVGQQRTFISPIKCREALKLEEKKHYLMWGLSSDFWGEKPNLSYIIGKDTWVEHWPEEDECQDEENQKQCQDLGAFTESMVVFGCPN
Experimental: 1.1 Interaction of Compstatin analogues with C3b. […] Individual injections within a cycle were 2 min long with a 5-min dissociation between injections. After the end of the last injection, a 40-min dissociation time was allowed. […] The kinetic evaluation was performed in BiaEvaluation using a single cycle kinetic template (kindly provided by GE Healthcare) by globally fitting each data set to a 1:1 Langmuir binding model to achieve association and dissociation rates (kₐ and kd, respectively); the equilibrium dissociation constant (KD) was calculated from the equation KD=kd/kₐ (FIG. 1). Each assay was performed at least twice.
^aSingle-cycle kinetic analysis of compstatin conjugates was performed. Sets of five increasing concentrations were consecutively injected over a C3b surface (3000-5000 RU density) in a single cycle. The processed signals were fitted to a 1:1 binding model.

complement component C3 = complement component C3 (human, UniProt P01024 672-1663); test: cell-based or functional assay
complement component C3, sequence (P01024 23-665 P314L limits assumed, chain 1 of 2): as the sequence (P01024 23-665 P314L limits assumed, chain 1 of 2) above
complement component C3, sequence (P01024 672-1663 limits assumed, chain 2 of 2): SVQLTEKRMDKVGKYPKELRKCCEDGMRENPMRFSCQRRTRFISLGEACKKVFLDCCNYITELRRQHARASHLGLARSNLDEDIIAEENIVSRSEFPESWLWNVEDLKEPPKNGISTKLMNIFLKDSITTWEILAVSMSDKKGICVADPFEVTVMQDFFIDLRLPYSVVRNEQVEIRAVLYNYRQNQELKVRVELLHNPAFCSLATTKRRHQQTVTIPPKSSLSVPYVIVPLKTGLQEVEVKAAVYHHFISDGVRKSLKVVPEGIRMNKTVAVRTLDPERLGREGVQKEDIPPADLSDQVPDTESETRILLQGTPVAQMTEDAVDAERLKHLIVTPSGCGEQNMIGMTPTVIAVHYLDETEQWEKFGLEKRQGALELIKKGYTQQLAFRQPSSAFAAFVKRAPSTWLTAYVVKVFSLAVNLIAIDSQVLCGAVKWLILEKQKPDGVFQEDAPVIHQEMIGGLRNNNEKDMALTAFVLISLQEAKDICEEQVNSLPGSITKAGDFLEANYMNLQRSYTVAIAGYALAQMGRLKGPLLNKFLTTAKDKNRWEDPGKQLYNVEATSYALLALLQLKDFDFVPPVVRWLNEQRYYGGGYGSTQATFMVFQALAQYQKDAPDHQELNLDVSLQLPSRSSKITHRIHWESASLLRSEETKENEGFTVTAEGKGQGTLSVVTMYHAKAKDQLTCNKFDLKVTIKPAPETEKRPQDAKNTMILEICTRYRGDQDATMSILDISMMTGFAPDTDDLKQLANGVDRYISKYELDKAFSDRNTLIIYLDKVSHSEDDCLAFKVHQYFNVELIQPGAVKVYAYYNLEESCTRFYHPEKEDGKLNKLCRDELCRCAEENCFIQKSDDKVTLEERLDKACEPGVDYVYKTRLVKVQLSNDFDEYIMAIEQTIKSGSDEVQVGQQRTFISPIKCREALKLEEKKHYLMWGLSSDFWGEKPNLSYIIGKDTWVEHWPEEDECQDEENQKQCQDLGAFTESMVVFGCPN

baboon albumin = baboon albumin (baboon); test: SPR, albumin (6.3-100 µM) over immobilized biotinylated ABM2-Cp20; apparent affinity (KD app) from steady state, single-binding-site model
Excerpt: 1.2 Interaction of ABM-Compstatin conjugates with albumin.
To confirm the albumin-directed activity of the ABM-compstatin conjugates and further explore their simultaneous binding to C3 and albumin, we performed additional SPR binding studies. […] The biotinylated peptides were immobilized on a streptavidin-coated SPR sensor chip, and the interactions with albumins from different species (human, baboon, bovine, rabbit and mouse) were characterized (Table 3; FIG. 2).

B1: Cp20 (Ac-Ile-[Cys-Val-Trp(Me)-Gln-Asp-Trp-Sar-Ala-His-Arg-Cys]-mIle-NH2) (peptide)
peptide: Ac-ICV[Trp(1-Me)]QDW[Sar]AHRC[NMeI]-NH2
modifications: disulfide 2-12
SMILES: CC[C@H](C)[C@H](NC(C)=O)C(=O)N[C@H]1CSSC[C@@H](C(=O)N(C)[C@H](C(N)=O)[C@@H](C)CC)NC(=O)[C@H](CCCNC(=N)N)NC(=O)[C@H](Cc2c[nH]cn2)NC(=O)[C@H](C)NC(=O)CN(C)C(=O)[C@H](Cc2c[nH]c3ccccc23)NC(=O)[C@H](CC(=O)O)NC(=O)[C@H](CCC(N)=O)NC(=O)[C@H](Cc2cn(C)c3ccccc23)NC(=O)[C@H](C(C)C)NC1=O
notes: Synthetic cyclic 13-residue peptide; also called compstatin analog Cp20; C20
Kd [1]: 2.9 nM
koff [1]: 0.0067 s⁻¹
kon [1]: 2.3e+06 M⁻¹ s⁻¹
IC50 (µM), inhibition of immune complex-induced (classical pathway) complement activation in human plasma, ELISA (complement component C3): 0.26 µM

B2: ABM1-Cp20 (peptide)
peptide: ABM1-ICV[Trp(1-Me)]QDW[Sar]AHRC[NMeI]-NH2
modifications: disulfide 2-12
SMILES: CC[C@H](C)[C@H](NC(=O)CCNS(=O)(=O)c1ccc2ccccc2c1)C(=O)N[C@H]1CSSC[C@@H](C(=O)N(C)[C@H](C(N)=O)[C@@H](C)CC)NC(=O)[C@H](CCCNC(=N)N)NC(=O)[C@H](Cc2c[nH]cn2)NC(=O)[C@H](C)NC(=O)CN(C)C(=O)[C@H](Cc2c[nH]c3ccccc23)NC(=O)[C@H](CC(=O)O)NC(=O)[C@H](CCC(N)=O)NC(=O)[C@H](Cc2cn(C)c3ccccc23)NC(=O)[C@H](C(C)C)NC1=O
notes: also called ABMT-Cp20 (misprint of ABM1 in the text)
IC50 (µM), inhibition of immune complex-induced (classical pathway) complement activation in human plasma, ELISA (complement component C3): 0.2 µM

B3: ABM2-Cp20 (ABM2-Ile-[Cys-Val-Trp(Me)-Gln-Asp-Trp-Sar-Ala-His-Arg-Cys]-mIle-NH2) (peptide)
peptide: ABM2-ICVWQDW[Sar]AHRC[NMeI]-NH2
modifications: disulfide 2-12; not fully specified (residue 4); printed as ABM2-Ile-[Cys-Val-Trp(Me)-Gln-Asp-Trp-Sar-Ala-His-Arg-Cys]-mIle-NH2
notes: also called ABM2-Compstatin 20
IC50 (µM), inhibition of immune complex-induced (classical pathway) complement activation in human plasma, ELISA (complement component C3): 0.17 µM

B4: ABM2-Cp20-miniPEG-Lys(biotin) (peptide)
peptide: ICVWQDWGAHRCIK
modifications: not fully specified; ABM2 amide-linked to the N-terminus; Trp(Me) at position 4; Sar at position 8; mIle at position 13; disulfide Cys2-Cys12; miniPEG (AEEEA) spacer between mIle13 and the C-terminal Lys; biotin on the Lys side chain; made on Rink amide resin (C-terminal amide)
notes: Captured on streptavidin-coated CM5 chip at about 100 RU; also called biotinylated ABM2-Cp20; immobilized ABM2-Cp20
Kd (baboon albumin): 106000 nM
